One substance from publication PMC5753752 can be followed below.

The target of test [1] is Cy3-labeled GLP-1R-T378SphK (UniProt P43220).
The target of test [2] is GLP-1R-T378SphK (UniProt P43220).
Test [3] concerns the target wild-type GLP-1R (UniProt P43220).

For the substance GLP-1 peptide, the GLP-1-induced cAMP accumulation in transfected HEK293T cells, pEC50 amounted to 10.4 in test [1], 10.3 in test [2] and 10.7 in test [3].
